Assays:
[1] = target: CTC1–STN1–TEN1 (CST) complex (human) (UniProt Q2NKJ3); assay: cryo-EM structure; CST and Polα/primase (PP^FL or PP^ΔN) mixed equimolar (1.5 μM each) with (GGTTAG)3 ssDNA, cross-linked by GraFix (glutaraldehyde, glycerol gradient), 20 mM HEPES pH 7.5, 150 mM NaCl, 10 mM MgCl2, 0.5 mM TCEP
His6-MBP-CTC1–STN1–TEN1 [2] = target: T1, His6-MBP-CTC1–STN1–TEN1 (human, UniProt Q2NKJ3 1-1217; Q9H668 1-368; Q86WV5 1-123, RED-tris-NTA second-generation dye on the His6 tag); assay: MST; binding event 2 (second site), independent experiment 2
T1 chain 1: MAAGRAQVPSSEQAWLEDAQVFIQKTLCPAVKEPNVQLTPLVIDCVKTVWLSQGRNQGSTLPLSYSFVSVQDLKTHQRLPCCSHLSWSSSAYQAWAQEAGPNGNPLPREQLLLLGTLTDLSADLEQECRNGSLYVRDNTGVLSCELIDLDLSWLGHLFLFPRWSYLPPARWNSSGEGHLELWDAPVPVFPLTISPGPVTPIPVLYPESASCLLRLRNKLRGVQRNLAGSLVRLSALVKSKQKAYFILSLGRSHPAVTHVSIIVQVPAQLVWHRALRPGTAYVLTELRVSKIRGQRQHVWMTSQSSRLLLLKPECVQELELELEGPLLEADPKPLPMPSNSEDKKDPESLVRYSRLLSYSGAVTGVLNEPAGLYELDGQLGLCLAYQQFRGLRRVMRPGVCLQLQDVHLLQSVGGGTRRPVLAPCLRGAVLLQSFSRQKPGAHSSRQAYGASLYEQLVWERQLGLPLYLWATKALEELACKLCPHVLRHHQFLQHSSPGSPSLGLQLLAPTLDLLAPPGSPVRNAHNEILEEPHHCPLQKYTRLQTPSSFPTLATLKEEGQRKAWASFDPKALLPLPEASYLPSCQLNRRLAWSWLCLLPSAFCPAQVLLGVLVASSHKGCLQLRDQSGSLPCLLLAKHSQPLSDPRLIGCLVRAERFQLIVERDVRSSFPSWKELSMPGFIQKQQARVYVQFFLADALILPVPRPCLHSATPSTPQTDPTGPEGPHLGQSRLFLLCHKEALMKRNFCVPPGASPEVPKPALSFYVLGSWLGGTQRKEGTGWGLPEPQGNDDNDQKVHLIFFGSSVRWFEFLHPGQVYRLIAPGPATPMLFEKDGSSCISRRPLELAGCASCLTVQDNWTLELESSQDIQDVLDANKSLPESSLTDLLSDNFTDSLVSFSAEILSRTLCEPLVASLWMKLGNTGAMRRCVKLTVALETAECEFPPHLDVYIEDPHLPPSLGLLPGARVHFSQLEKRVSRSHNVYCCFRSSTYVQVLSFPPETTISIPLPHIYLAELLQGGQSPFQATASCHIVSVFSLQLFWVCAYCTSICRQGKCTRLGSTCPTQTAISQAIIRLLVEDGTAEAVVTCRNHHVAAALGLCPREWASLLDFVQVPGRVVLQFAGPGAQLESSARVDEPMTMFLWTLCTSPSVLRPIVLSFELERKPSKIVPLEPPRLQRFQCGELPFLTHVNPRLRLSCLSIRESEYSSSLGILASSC
T1 chain 2: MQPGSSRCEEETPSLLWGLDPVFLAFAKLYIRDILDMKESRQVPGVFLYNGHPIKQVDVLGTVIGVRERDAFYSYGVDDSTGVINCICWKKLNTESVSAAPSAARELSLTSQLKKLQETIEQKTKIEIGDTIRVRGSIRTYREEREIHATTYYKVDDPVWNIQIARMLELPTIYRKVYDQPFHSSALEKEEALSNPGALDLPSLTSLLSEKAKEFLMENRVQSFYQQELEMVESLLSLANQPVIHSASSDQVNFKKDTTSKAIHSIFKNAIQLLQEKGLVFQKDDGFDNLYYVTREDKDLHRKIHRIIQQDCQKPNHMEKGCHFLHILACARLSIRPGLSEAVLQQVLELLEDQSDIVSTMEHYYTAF
T1 chain 3: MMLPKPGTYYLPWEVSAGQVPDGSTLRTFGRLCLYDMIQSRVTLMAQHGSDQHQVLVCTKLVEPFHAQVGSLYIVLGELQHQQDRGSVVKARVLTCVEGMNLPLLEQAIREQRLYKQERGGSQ

His6-MBP-CTC1–STN1–TEN1 [3] = target: T1, His6-MBP-CTC1–STN1–TEN1; assay: MST; binding event 2 (second site), independent experiment 1
His6-MBP-CTC1–STN1–TEN1 [4] = target: T2, His6-MBP-CTC1–STN1–TEN1 (human, UniProt Q2NKJ3 1-1217; Q9H668 1-368; Q86WV5 1-123, RED-tris-NTA second-generation dye on the His6 tag); assay: MST; 50 nM RED-tris-NTA-labeled His6-MBP-CST with serial dilutions of unlabeled POLA1^CTD constructs; room temperature; 20 mM HEPES pH 7.5, 150 mM NaCl, 5 mM DTT, 0.05% Tween-20; CRL^WT data split into two binding events; conditions: both partners purified
T2 construct: human CTC1; human STN1; human TEN1; A PreScission site lies between MBP and CTC1; also called His6-MBP-CST; fluorescently labeled CST; source: Tni insect cells (baculovirus), purified (Ni-NTA, heparin, SEC; protease-cleavage step omitted); not shown: His6, N-terminal, kept; MBP, N-terminal, kept; copies: + +

His6-MBP-CTC1–STN1–TEN1 [5] = target: T1, His6-MBP-CTC1–STN1–TEN1; assay: MST; binding event 2 (second site), independent experiment 3
His6-MBP-CTC1–STN1–TEN1 [6] = target: T1, His6-MBP-CTC1–STN1–TEN1; assay: MST; binding event 1, independent experiment 2
His6-MBP-CTC1–STN1–TEN1 [7] = target: T1, His6-MBP-CTC1–STN1–TEN1; assay: MST; binding event 1, independent experiment 1
His6-MBP-CTC1–STN1–TEN1 [8] = target: T1, His6-MBP-CTC1–STN1–TEN1; assay: MST; binding event 1, independent experiment 3
[9] = target: T3, full-length Polα/primase (POLA1^FL/POLA2/PRIM1/PRIM2) (human, UniProt P09884 1-1462; Q14181 1-598; P49642 1-420; P49643 1-509); assay: SEC; purified proteins mixed (PP^FL and CST equimolar; CST with twofold molar excess of His6-MBP-POLA1^N), 1 h at 4 °C, HiLoad Superdex 200 16/600 PG, 20 mM HEPES pH 7.5, 150 mM NaCl, 0.5 mM TCEP, 5% glycerol; conditions: both partners purified
T3 construct: human POLA2; human PRIM1; human PRIM2; The methods describe no tag cleavage for this complex (PreSc site after MBP, TEV site after StrepII); also called PP^FL; DNA polymerase α–primase; source: Tni insect cells (baculovirus), purified (Ni-NTA, RESOURCE Q, SEC); copies: + + +
T3 sequence (Q14181 whole entry, chain 2 of 3): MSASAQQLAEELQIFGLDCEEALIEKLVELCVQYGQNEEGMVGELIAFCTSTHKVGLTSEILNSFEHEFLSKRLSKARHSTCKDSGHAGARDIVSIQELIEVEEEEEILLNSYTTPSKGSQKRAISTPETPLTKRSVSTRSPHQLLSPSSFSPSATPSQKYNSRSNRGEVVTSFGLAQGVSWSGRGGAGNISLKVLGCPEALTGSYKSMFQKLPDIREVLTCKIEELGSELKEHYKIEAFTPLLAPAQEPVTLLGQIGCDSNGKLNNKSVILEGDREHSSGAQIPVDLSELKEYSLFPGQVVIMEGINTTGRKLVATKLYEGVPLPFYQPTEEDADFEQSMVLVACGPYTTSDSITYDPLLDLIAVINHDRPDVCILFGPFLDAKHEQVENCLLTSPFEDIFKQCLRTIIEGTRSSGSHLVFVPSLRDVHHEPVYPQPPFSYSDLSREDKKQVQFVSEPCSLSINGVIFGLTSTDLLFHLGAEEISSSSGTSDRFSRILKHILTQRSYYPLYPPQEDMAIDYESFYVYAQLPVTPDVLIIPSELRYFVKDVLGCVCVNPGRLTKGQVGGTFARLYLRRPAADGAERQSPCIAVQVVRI
T3 sequence (P49642 whole entry, chain 3 of 3): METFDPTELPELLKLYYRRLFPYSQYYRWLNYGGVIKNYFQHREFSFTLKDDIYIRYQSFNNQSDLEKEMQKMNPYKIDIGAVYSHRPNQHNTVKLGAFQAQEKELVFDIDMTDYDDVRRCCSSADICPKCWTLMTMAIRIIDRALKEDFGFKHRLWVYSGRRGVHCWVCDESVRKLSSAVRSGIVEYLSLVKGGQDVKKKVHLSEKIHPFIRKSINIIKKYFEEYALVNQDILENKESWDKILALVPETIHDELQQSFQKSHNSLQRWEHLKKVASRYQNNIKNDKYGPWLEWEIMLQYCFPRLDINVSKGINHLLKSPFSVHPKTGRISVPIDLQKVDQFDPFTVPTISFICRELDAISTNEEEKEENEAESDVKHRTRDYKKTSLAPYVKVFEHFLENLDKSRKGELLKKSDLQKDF
T3 sequence (P49643 whole entry, chain 4 of 3): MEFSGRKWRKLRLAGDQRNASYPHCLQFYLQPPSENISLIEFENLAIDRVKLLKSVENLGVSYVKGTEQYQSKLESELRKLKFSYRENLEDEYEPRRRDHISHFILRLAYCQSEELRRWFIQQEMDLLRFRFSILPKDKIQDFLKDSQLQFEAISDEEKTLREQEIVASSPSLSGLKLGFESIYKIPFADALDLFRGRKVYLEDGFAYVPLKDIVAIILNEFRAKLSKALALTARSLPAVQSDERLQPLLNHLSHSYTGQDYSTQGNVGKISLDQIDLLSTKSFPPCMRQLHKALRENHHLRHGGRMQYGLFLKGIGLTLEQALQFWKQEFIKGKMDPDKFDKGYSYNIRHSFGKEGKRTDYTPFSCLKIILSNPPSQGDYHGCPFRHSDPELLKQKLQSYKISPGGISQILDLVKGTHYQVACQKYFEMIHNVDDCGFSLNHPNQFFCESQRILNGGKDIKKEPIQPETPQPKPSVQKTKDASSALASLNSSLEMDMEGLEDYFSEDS

## full-length Polα/primase (POLA1^FL/POLA2/PRIM1/PRIM2), P09884 1-1462; Q14181 1-598; P49642 1-420; P49643 1-509
[1]
  stoichiometry N: 1

B1: POLA1^CTD with the CRL swapped for the S. pombe short loop (domain or fragment, human | S. pombe)
chain: AQLTDEEKYRDCERFKCPCPTCGTENIYDNVFDGSGTDMEPSLYRCSNIDCKASPLTFTVQLSNKLIMDIRRFIKKYYDGWLICEEPTCRNRTRHLPLQFSRTGPLCPACMKATLQPEYSDKSLYTQLCFYRYIFQTTTGATKVLQDYRKLKNTAEQFLSRSGYSEVNLSKLFAGCAVKS
notes: short loop of the S. pombe POLA1 orthologue, in place of the human CRL (residues 1400-1424); also called CRL^(S. pombe); source: E. coli Rosetta(DE3), purified (Ni-NTA, Ulp1 cleavage, reverse Ni-NTA, SEC); not shown: His6, N-terminal, cleaved; Smt3, N-terminal, cleaved
His6-MBP-CTC1–STN1–TEN1 [2]
  Kd: 75 µM
His6-MBP-CTC1–STN1–TEN1 [3]
  Kd: 134 µM
His6-MBP-CTC1–STN1–TEN1 [4]
  KD of binding event 2: ~88 µM
His6-MBP-CTC1–STN1–TEN1 [5]
  Kd: 77 µM

B2: POLA1^CTD with the wild-type CRL (domain or fragment, human, UniProt P09884 1265-1462, looked up)
chain: AQLTDEEKYRDCERFKCPCPTCGTENIYDNVFDGSGTDMEPSLYRCSNIDCKASPLTFTVQLSNKLIMDIRRFIKKYYDGWLICEEPTCRNRTRHLPLQFSRTGPLCPACMKATLQPEYSDKSLYTQLCFYRYIFDAECALEKLTTDHEKDKLKKQFFTPKVLQDYRKLKNTAEQFLSRSGYSEVNLSKLFAGCAVKS
notes: also called CRL^WT; source: E. coli Rosetta(DE3), purified (Ni-NTA, Ulp1 cleavage, reverse Ni-NTA, SEC); not shown: His6, N-terminal, cleaved; Smt3, N-terminal, cleaved
His6-MBP-CTC1–STN1–TEN1 [6]
  Kd: 13 µM
His6-MBP-CTC1–STN1–TEN1 [2]
  Kd: 216 µM
His6-MBP-CTC1–STN1–TEN1 [3]
  Kd: 56 µM
His6-MBP-CTC1–STN1–TEN1 [4]
  KD of binding event 1: ~3.3 µM
  KD of binding event 2: ~122 µM
His6-MBP-CTC1–STN1–TEN1 [7]
  Kd: 1.4 µM
His6-MBP-CTC1–STN1–TEN1 [5]
  Kd: 156 µM
His6-MBP-CTC1–STN1–TEN1 [8]
  Kd: 14 µM

B3: CTC1–STN1–TEN1 (CST) complex (complex, human)
chain 1: MAAGRAQVPSSEQAWLEDAQVFIQKTLCPAVKEPNVQLTPLVIDCVKTVWLSQGRNQGSTLPLSYSFVSVQDLKTHQRLPCCSHLSWSSSAYQAWAQEAGPNGNPLPREQLLLLGTLTDLSADLEQECRNGSLYVRDNTGVLSCELIDLDLSWLGHLFLFPRWSYLPPARWNSSGEGHLELWDAPVPVFPLTISPGPVTPIPVLYPESASCLLRLRNKLRGVQRNLAGSLVRLSALVKSKQKAYFILSLGRSHPAVTHVSIIVQVPAQLVWHRALRPGTAYVLTELRVSKIRGQRQHVWMTSQSSRLLLLKPECVQELELELEGPLLEADPKPLPMPSNSEDKKDPESLVRYSRLLSYSGAVTGVLNEPAGLYELDGQLGLCLAYQQFRGLRRVMRPGVCLQLQDVHLLQSVGGGTRRPVLAPCLRGAVLLQSFSRQKPGAHSSRQAYGASLYEQLVWERQLGLPLYLWATKALEELACKLCPHVLRHHQFLQHSSPGSPSLGLQLLAPTLDLLAPPGSPVRNAHNEILEEPHHCPLQKYTRLQTPSSFPTLATLKEEGQRKAWASFDPKALLPLPEASYLPSCQLNRRLAWSWLCLLPSAFCPAQVLLGVLVASSHKGCLQLRDQSGSLPCLLLAKHSQPLSDPRLIGCLVRAERFQLIVERDVRSSFPSWKELSMPGFIQKQQARVYVQFFLADALILPVPRPCLHSATPSTPQTDPTGPEGPHLGQSRLFLLCHKEALMKRNFCVPPGASPEVPKPALSFYVLGSWLGGTQRKEGTGWGLPEPQGNDDNDQKVHLIFFGSSVRWFEFLHPGQVYRLIAPGPATPMLFEKDGSSCISRRPLELAGCASCLTVQDNWTLELESSQDIQDVLDANKSLPESSLTDLLSDNFTDSLVSFSAEILSRTLCEPLVASLWMKLGNTGAMRRCVKLTVALETAECEFPPHLDVYIEDPHLPPSLGLLPGARVHFSQLEKRVSRSHNVYCCFRSSTYVQVLSFPPETTISIPLPHIYLAELLQGGQSPFQATASCHIVSVFSLQLFWVCAYCTSICRQGKCTRLGSTCPTQTAISQAIIRLLVEDGTAEAVVTCRNHHVAAALGLCPREWASLLDFVQVPGRVVLQFAGPGAQLESSARVDEPMTMFLWTLCTSPSVLRPIVLSFELERKPSKIVPLEPPRLQRFQCGELPFLTHVNPRLRLSCLSIRESEYSSSLGILASSC
chain 2: MQPGSSRCEEETPSLLWGLDPVFLAFAKLYIRDILDMKESRQVPGVFLYNGHPIKQVDVLGTVIGVRERDAFYSYGVDDSTGVINCICWKKLNTESVSAAPSAARELSLTSQLKKLQETIEQKTKIEIGDTIRVRGSIRTYREEREIHATTYYKVDDPVWNIQIARMLELPTIYRKVYDQPFHSSALEKEEALSNPGALDLPSLTSLLSEKAKEFLMENRVQSFYQQELEMVESLLSLANQPVIHSASSDQVNFKKDTTSKAIHSIFKNAIQLLQEKGLVFQKDDGFDNLYYVTREDKDLHRKIHRIIQQDCQKPNHMEKGCHFLHILACARLSIRPGLSEAVLQQVLELLEDQSDIVSTMEHYYTAF
chain 3: MMLPKPGTYYLPWEVSAGQVPDGSTLRTFGRLCLYDMIQSRVTLMAQHGSDQHQVLVCTKLVEPFHAQVGSLYIVLGELQHQQDRGSVVKARVLTCVEGMNLPLLEQAIREQRLYKQERGGSQ
notes: human CTC1; human STN1; human TEN1; Expressed from pBIG1a(His6-MBP-PreSc-CTC1/STN1/TEN1); tag removed with rhinovirus 3C protease; source: Tni insect cells (baculovirus), purified (Ni-NTA, 3C protease cleavage, heparin, SEC); not shown: His6, N-terminal, cleaved; MBP, N-terminal, cleaved; copies: + +
[9]
  binding result: binds

B4: POLA1^CTD with the CRL swapped for a GGSGGS-linker (domain or fragment, human)
chain: AQLTDEEKYRDCERFKCPCPTCGTENIYDNVFDGSGTDMEPSLYRCSNIDCKASPLTFTVQLSNKLIMDIRRFIKKYYDGWLICEEPTCRNRTRHLPLQFSRTGPLCPACMKATLQPEYSDKSLYTQLCFYRYIFDAEGGSGGSTPKVLQDYRKLKNTAEQFLSRSGYSEVNLSKLFAGCAVKS
notes: linker in place of the CRL (residues 1403-1422); also called CRL^GGSGGS; source: E. coli Rosetta(DE3), purified (Ni-NTA, Ulp1 cleavage, reverse Ni-NTA, SEC); not shown: His6, N-terminal, cleaved; Smt3, N-terminal, cleaved
His6-MBP-CTC1–STN1–TEN1 [2]
  Kd: 79 µM
His6-MBP-CTC1–STN1–TEN1 [3]
  Kd: 133 µM
His6-MBP-CTC1–STN1–TEN1 [4]
  KD of binding event 2: ~96 µM
His6-MBP-CTC1–STN1–TEN1 [5]
  Kd: 82 µM

— article PMC9371972, “Cryo-EM structure of the human CST–Polα/primase complex in a recruitment state” (Nature Structural & Molecular Biology, 2022)
